{"source": "patent US20140341917A1", "about": "(Merck KGaA, published 2014)", "binders": {"B1": {"name": "A09-188-1 (antibody, human IgG1, lambda, V domains shown)", "VH": "EVQLLESGGGLVQPGGSLRLSCAASGFTFSMYMMMWVRQAPGKGLEWVSSIYPSGGITFYADSVKGRFTISRDNSKNTLYLQMNSLRAEDTAIYYCARIKLGTVTTVDYWGQGTLVTVSS", "VL": "QSALTQPASVSGSPGQSITISCTGTSSDVGAYNYVSWYQQHPGKAPKLMIYDVSNRPSGVSNRFSGSKSGNTASLTISGLQAEDEADYYCSSYTSSSTRVFGTGTKVTVLG", "notes": "Parent antibody, lambda light chain, expressed as IgG"}, "B2": {"name": "A09-246-2 (antibody, human IgG1, lambda, V domains shown)", "VH": "B1 VH with M31S, M33I, S63T, I93V", "VL": "B1 VL with A31G", "notes": "lambda light chain"}, "B3": {"name": "A09-248-2 (antibody, human IgG1, lambda, V domains shown)", "VH": "B1 VH with M31I, M33I, M35F, S63T, I93V", "VL": "B1 VL with A31G", "notes": "also called VL-A31G; VH-M31I, M33I, M35F, S63T, I93V"}}, "key": {"human PD-L1 [1]": {"molecular_target": "T1, human PD-L1 (human, UniProt Q9NZQ7 19-238, limits assumed)", "T1 construct": "Protein used in the Biacore assays of 3.1", "T1 sequence (Q9NZQ7 19-238 limits assumed)": "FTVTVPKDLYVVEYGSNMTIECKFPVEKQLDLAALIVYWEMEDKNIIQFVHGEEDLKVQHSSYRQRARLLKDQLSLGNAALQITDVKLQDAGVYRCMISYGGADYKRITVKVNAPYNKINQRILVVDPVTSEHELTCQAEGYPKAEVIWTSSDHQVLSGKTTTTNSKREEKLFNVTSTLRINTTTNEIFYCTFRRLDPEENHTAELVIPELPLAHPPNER", "test": "Biacore; relative to A09-188-1"}, "mouse PD-L1": {"molecular_target": "T2, mouse PD-L1 (mouse, UniProt Q9EP73 19-238, limits assumed)", "T2 construct": "Biacore protein", "T2 sequence (Q9EP73 19-238 limits assumed)": "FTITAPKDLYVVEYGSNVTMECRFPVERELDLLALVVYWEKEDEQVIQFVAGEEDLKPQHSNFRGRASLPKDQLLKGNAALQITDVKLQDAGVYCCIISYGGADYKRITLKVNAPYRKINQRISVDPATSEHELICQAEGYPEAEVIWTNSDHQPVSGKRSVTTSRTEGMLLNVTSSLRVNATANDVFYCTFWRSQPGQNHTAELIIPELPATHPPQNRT", "test": "ELISA, later Biacore and FACS on PD-L1 expressing cells (hit selection, IgG format)"}, "human PD-L1 [2]": {"molecular_target": "T1, human PD-L1", "test": "Biacore kinetic profile"}, "hu-B7.1-huFc": {"molecular_target": "T3, hu-B7.1-huFc (human, UniProt P33681 35-242, limits assumed)", "T3 construct": "not shown: human Fc (huFc)", "T3 sequence (looked up)": "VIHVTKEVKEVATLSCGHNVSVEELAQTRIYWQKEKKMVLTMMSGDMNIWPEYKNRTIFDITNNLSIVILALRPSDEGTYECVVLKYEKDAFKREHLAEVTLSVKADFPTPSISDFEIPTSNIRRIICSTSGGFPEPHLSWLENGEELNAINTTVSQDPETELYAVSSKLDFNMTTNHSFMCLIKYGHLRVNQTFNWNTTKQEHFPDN", "test": "Biacore"}, "hu-B7.2-huFc": {"molecular_target": "T4, hu-B7.2-huFc (human, UniProt P42081 26-245, limits assumed)", "T4 construct": "not shown: human Fc (huFc)", "T4 sequence (looked up)": "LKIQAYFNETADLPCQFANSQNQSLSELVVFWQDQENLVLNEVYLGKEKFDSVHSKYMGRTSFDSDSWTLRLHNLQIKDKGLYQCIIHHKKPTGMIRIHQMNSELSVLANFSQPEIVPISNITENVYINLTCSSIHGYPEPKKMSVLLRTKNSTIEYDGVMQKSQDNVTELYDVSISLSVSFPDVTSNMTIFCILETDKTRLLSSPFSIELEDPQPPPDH", "test": "Biacore"}, "huB7-H3-huFc": {"molecular_target": "T5, huB7-H3-huFc (human, UniProt Q5ZPR3-2 29-245, limits assumed)", "T5 construct": "not shown: human Fc (huFc)", "T5 sequence (looked up)": "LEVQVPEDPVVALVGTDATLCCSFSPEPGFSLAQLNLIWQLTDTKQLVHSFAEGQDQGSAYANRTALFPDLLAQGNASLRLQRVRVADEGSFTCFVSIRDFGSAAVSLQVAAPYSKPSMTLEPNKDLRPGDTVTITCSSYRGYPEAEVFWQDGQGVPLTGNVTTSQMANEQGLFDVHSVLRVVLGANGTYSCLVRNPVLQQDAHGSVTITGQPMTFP", "test": "Biacore"}, "hu-PDL-2-huFc": {"molecular_target": "T6, hu-PDL-2-huFc (human, UniProt Q9BQ51 20-219, limits assumed)", "T6 construct": "not shown: human Fc (huFc)", "T6 sequence (looked up)": "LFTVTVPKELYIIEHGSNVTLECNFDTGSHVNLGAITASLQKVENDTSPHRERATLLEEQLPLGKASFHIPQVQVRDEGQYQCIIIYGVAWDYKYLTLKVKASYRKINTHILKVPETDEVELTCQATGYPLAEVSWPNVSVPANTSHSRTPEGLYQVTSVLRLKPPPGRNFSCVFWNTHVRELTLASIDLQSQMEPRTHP", "test": "Biacore"}, "huB7-H2-huFc": {"molecular_target": "T7, huB7-H2-huFc (human, UniProt O75144 19-258, limits assumed)", "T7 construct": "not shown: human Fc (huFc)", "T7 sequence (looked up)": "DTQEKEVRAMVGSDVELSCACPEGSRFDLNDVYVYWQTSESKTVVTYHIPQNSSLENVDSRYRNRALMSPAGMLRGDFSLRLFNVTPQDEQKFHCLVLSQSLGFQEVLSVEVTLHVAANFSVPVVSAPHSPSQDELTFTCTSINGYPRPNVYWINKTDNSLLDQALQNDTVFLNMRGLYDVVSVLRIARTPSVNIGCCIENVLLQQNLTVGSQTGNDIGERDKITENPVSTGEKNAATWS", "test": "Biacore"}, "[3]": {"molecular_target": "T8, cynomolgus monkey PD-L1 expressed on the HEK cell surface (cynomolgus monkey, UniProt G7PSE7 19-290)", "T8 construct": "The sentence prints only 'cynomolgus monkey expressed on the HEK cell surface'", "T8 sequence (G7PSE7 entry or part of it limits assumed)": "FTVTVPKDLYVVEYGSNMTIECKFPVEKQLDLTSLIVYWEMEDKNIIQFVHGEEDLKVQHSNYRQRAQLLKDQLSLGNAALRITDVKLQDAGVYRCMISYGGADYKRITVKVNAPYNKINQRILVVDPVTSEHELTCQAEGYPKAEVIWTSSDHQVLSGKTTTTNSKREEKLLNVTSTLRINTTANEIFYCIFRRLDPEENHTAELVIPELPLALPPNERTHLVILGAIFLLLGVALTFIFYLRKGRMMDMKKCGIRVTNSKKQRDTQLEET", "test": "direct FACS binding, HEK cells expressing cynomolgus monkey PD-L1"}}, "note": "Positions count from the first letter of the chain named. In names and notes the source's numbering stands."}
{"binder": "B1", "values": [{"measurement": "Relative KD", "setting": "human PD-L1 [1]", "result": 1}, {"measurement": "binding result", "setting": "mouse PD-L1", "result": "binds"}, {"measurement": "Kd", "setting": "human PD-L1 [2]", "result": 5.29, "unit": "nM"}, {"measurement": "t½", "setting": "human PD-L1 [2]", "result": 0.22, "unit": "h"}]}
{"binder": "B2", "values": [{"measurement": "binding result", "setting": "hu-B7.1-huFc", "result": "no binding"}, {"measurement": "binding result", "setting": "hu-B7.2-huFc", "result": "no binding"}, {"measurement": "binding result", "setting": "huB7-H3-huFc", "result": "no binding"}, {"measurement": "binding result", "setting": "hu-PDL-2-huFc", "result": "no binding"}, {"measurement": "binding result", "setting": "huB7-H2-huFc", "result": "no binding"}, {"measurement": "EC50", "setting": "[3]", "result": 0.94, "unit": "nM"}]}
{"binder": "B3", "values": [{"measurement": "Relative KD", "setting": "human PD-L1 [1]", "result": 0.02}, {"measurement": "Kd", "setting": "human PD-L1 [2]", "result": 0.1, "unit": "nM"}, {"measurement": "t½", "setting": "human PD-L1 [2]", "result": 7.27, "unit": "h"}]}
